Test results published in the domain aggregation screens of Martell et al. (2025).

Test: soluble fraction after stress (log2 fold change); higher = more stays soluble; pooled small domains, quantitative proteomics
Settings: stress: 75 degC
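Further: 20 min heating vs room temperature control held 20 min.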

Compared with “HMEQAAQPQTGFDPRRLKAGDAVHLLALDQRGVLLEDPKPGAESAPVSVGVAGVRVVVPLREMEALPAG”, “HMEQEVLDLLFDAIRSLPEKYRRLFDMSFEQGLKNAEIAALLHVSESAVKKQKASMIQQLRDDLLRKTGKD” is lower in “soluble fraction (log2)” value: 0.0201 for the first, -0.745 for the second.

Going from “HMEQFDFTILRELRKRAGLSIGEVSAESGVSAAVISKLERNRTRAELDTLYRLARVFGITAAELLNLAEA” to “HMEQIETIFLSAAPYARTHIIHLLETSELFRDKYLTIVETSNGLLIYTEDKNRLLGILNSLT”, the “soluble fraction (log2)” value falls from -2.19 to -2.51.

Going from “HMEQIFTELIMDGRVLGENLHRMGVDETWLLRQLRQQGYHSAREVFLAVADANKQVAVYPVS” to “HMEQINVTIQTEKGRIDKVLSEHLPNHSRSQIQQWLKEKHVTVNGETVRANYKVTAGDEIVVTIPEPEV”, the “soluble fraction (log2)” value rises from -0.381 to 0.546.

Going from “HMEQISDEDTLRKMVNEVLDNNQTQLEQYKSGKTNLIGFFVGQTLKKSAGKANPSIVNKLVNEEIYI” to “HMEQISIETRIEQLLARLSETEASGFEELFADTSSRADLITTFLALLEMIRLKLVRVFQDGSFGPIRIYKR”, the “soluble fraction (log2)” value falls from 0.141 to -0.572.

“HMEQKISVPALVGRDIEEILADTEVTGNFTIKEADKRVASNRPVGEVLEQDPGTGESAVKGTIITVTVSAG” and “HMEQNTKAYEQVRTLTDLLNQYRHEYYNLSAPSVSDQEYDRLFDALAALEKQTGIVMSNSPTQTVG” are within 0.2 log units of each other in “soluble fraction (log2)” value: -0.0542 for the first, 0.0212 for the second.

“HMEQPAPSTTVDILGGGRAALVTANRELGLALADDEIDYLTDSFTQLGRNPVDVELMMFAQA” and “HMEQSLNTYSIRTVKESLFLAETKNLNKIEKLVEGIEGRLTLSEALVLFSDKLNAMSVLSHVNANT” are within 0.2 log units of each other in “soluble fraction (log2)” value: -0.00398 for the first, -0.154 for the second.

First: HMEQTIKKYVNVATLNFRSGPSTSYSIISTLSKGTKVEVISTTNNWSKIIYDGKIGYVSSEYLSKSI
Second: HMEQVPEAVGRRVRQARSDRGWTLDQLAERSEVSRRMIVNVEAGTSNASIATLLRLATALNVGLAELVA
The “soluble fraction (log2)” value of the first is lower: -3.07 for the first, -1.61 for the second.

Compared with “HMEQVVFNGTGRRKSSIARVRIMSGKGNITVNGKALDEYFGEETLKVIVRQPLTVTDTLDKYDVIATVK”, “HMEQYYVFFAGGMTIGTKEWYESILPENIATSYDDILEGKMMPASLEQIEFYNSHKDYDLYHLFYML” is lower in “soluble fraction (log2)” value: 0.0911 for the first, -4.25 for the second.

Going from “HMERAFRILELFDLKQDELPITEIAERTGLPISTAHRLLSTLETLGYIAQNPDNGRYRLGLQTFVLGSR” to “HMERAPAYPDGLTQREVEVLRLIASGKTDREIAEELFIGVRTVSTHVGNILNKTNSANRTEAASYANQQGL”, the “soluble fraction (log2)” value rises from -1.86 to -0.0632.

“HMEREQNIAQGREVVQRELKRLGLTDVFTVEDIGRALKFDDIDEFLSKVGFGDIQTAKITGAIALMQQALR” and “HMEREQNIEHGRAIVERELKRLGLSDVYTIADIATALRHDDVDQFLAKIGFGDIQSTQIGGAIAALQQR” are within 0.2 log units of each other in “soluble fraction (log2)” value: -0.0649 for the first, 0.0025 for the second.

Compared with “HMEREQPFAVTEAYRGMRLDRFLQAMLPRMSRAAIQDAIDNRVRLGSGRAAKASLRPAIGDTVFFGQRI”, “HMERFRQVNAGMTRDDIYQLLGKPTEKTPFPLKNEEVWSWRHQADGQTVALFNIHLDPDGRVTTTSQSMDL” is higher in “soluble fraction (log2)” value: -1.17 for the first, 0.739 for the second.

Going from “HMERFVVISKDKYANLREEASTNSKVLAKVDNSYLIYNTNTYNENKDWYSVQIERDGNYYQVGYIHKSQL” to “HMERLKRVTLSLNQSNYSVTEIARRLQAITGIKDITVVEDEQAVYLKVDPATFDLTLAQQAV”, the “soluble fraction (log2)” value rises from -1.61 to -0.474.

First: HMERLLVSKINGMITEAKVSVEDVVKVVASRGHYPEVKSIDEYPDDFLSRWVVPNFKKIVEMINANKEA
Second: HMERMTSTEILTRDFLTTNSKIVKKSTIEELSEIIHVSPATIIRTVKKMGYSGFSEYKNELINQ
The “soluble fraction (log2)” value of the first is higher: -0.979 for the first, -1.73 for the second.

First: HMERPEVVAYRLAYASAESLRPALGLVASPSDLEIDERTNTLIVRAVPSVQERVAELVASLDI
Second: HMERPKSLRELALEHLRNSIIDGSLKMGQVLSERKISEELGVSKSPVREALAQLRDEGLVSIEPQKGARV
The “soluble fraction (log2)” value of the first is lower: -0.492 for the first, 0.14 for the second.

“HMERPLFVIEDYRRFAGNEVEISLKKGGKKIRGVIAGTPSDAEVTVRTQGGETTVPLGDVKRAHLVYV” and “HMERRDEINSVVSRYVSAITEGKYDLAEVDETGKLRVQTEGREVLPEALSRGTLEQFYFAFRMAVGSI” are within 0.2 log units of each other in “soluble fraction (log2)” value: -0.00192 for the first, 0.04 for the second.

Going from “HMERTQSIEAAREQLGEVTKDNVFETETLGALAILKENEPGEYAKIKADLKGKINMNDLERAVKKAAADQR” to “HMERYFVLVIYDIVDNKKRLKLSKYLLGYGIRVQKSAFEMMITKEKYNKLIKELPTYIEEGEDSIRLY”, the “soluble fraction (log2)” value falls from 1.02 to 0.0566.

“HMERYLLRDNIPNALHGERLDRVIAIMTGLSRSAVSALIKSNQVLRNGQIAQSISEKVVEGDELEVHLEP” and “HMESDAIAAAIAALPARYREVLLLRYDNGFSYSEISKALDMTEAAVRKTVQRAKEALQRTLQIQEEDT” are within 0.2 log units of each other in “soluble fraction (log2)” value: -0.832 for the first, -0.767 for the second.

Compared with “HMESDRVAHVVAPGETLFSISGKYGIGMGELVAANPVLESRPPRTGDTLLIRLPENPLPAETDAETLS”, “HMESIAEIDRMNAKIFMDEFQDSLSIMQKTTNPETFFSRYDLAMERLDNMVELQQKGIKFTSDLSSLKAQ” is lower in “soluble fraction (log2)” value: 0.643 for the first, 0.0865 for the second.

Compared with “HMESIEGMYKISLLRKQGNAYVIFEDENKEAVEHIFPEKPTALELGTKVIEMFEYKERYDGLI”, “HMESILDDFPGLGEKRKKALLEHFGSISKIKAATVGQLREVDGIGFETAAALREFLDANFPA” is higher in “soluble fraction (log2)” value: -0.343 for the first, 0.188 for the second.

Going from “HMESIPDELLEAFKQDPAFKQAFYALTAGRQRGYIIHFSQPKQSQTRIGRIEKYKEQIFNGIGLN” to “HMESKPLTPSEIKKLRMDANMTQAGLAEVLGMTVKAVEAWESGRNIPSGAADKILRVMQKHPSVIGMMQS”, the “soluble fraction (log2)” value rises from -1.39 to 0.0281.

Going from “HMESLNDRIKLVFKDSGLTQMDISKRLNIAQSSVSGIISGKANPSKRTLADIADRFDVNLEWLRDGTGPMK” to “HMESLSHRQKSIVDWVQKNGYASIERMAEQFEVSAQTIRRDVIELSERRILQRHHGGASLPAG”, the “soluble fraction (log2)” value falls from 0.474 to -0.211.

“HMESNDSNIEDDFYEGLKSMRKGDLKMSVVFFTRVIEKKPTFAEAWNRRATVYYMLGKFDKSMFDINETLK” and “HMESPELIHILKEAEWQIWQQIQGLPEKQRIAMTLFAMDDLSYQEIADVMKVSVSAIESLLFRARTQLKKY” are within 0.2 log units of each other in “soluble fraction (log2)” value: -0.354 for the first, -0.546 for the second.

Going from “HMESPLEQLTNRELQTLQMLGKGLSTKQIAAQLNLSVKTVETYRENLKRKLNLDSGSELIRYAIHRSNE” to “HMESPLNPTDVRRAAMDLLARREHGVEELRLKLKRRFGREEDFETIATEQLQRLVDEDLLSDTRF”, the “soluble fraction (log2)” value falls from 0.532 to -0.355.

First: HMESRETGLPVVIISDGRILQDNLKRRGLDLSWLDKQLAEHGYPDFRDVFLLTVDEAGGVYFVPRE
Second: HMESSNLESQLKKGIVPNLNGLSAKDALFLLENSGFNVKLYGMGSVKKQSLEAGKKYNKGDKITLIL
The “soluble fraction (log2)” value of the first is higher: 0.438 for the first, 0.151 for the second.

Compared with “HMESSYKGFILDIETRQFSPTLIQRRGIAINPSGIVETTTEFSFATQEKVLIEDLKLIIDELDLRADY”, “HMESTLNYSQFLSLVNEDRVAEVVIQGKELYVTDVNRSRFKVYAPPDPELIGLLRQKRVIISAKP” is higher in “soluble fraction (log2)” value: -3.69 for the first, -0.56 for the second.

Compared with “HMESVDRIYERVRRYADDVGTAKIPMKELDDDGPLGTAVSRIRERRKRGELTEEWEARFETLPGWTWAA”, “HMESWEDSNIANEFKSTIKIAEKRLAEGGDHPELLEKLEALKQAIINENQTEASKLDDQVNDILFDMDD” is higher in “soluble fraction (log2)” value: 0.045 for the first, 0.602 for the second.

“HMETEAGIKAYLSSSMIKGIGPVTAQRIVERFGKRTLYVLDQMPEKLLDISGISEAKLEEILNGYRKS” and “HMETFGEKDLDELIGRNVELITHDGKVREGLVDSVDRYNVSLVRYLDAGEVAMMVRRREVKAVRLK” are within 0.2 log units of each other in “soluble fraction (log2)” value: -0.536 for the first, -0.703 for the second.

Compared with “HMETFGLSQRELQILSQLHKGQPLKEFAASLFITESTLKTHLSAIYRKMSVKNRVQAIEKAKQSGL”, “HMETGEDSLRRYFNSLPGSASKREILEDNPTVSQRTTERILQKLQAEGFIEKVGAARATRYRKVKQ” is higher in “soluble fraction (log2)” value: -1.4 for the first, 0.259 for the second.

Compared with “HMETGELQQILEDVFSKNIGIVQDKREAAFSILMGMIMAKSRGRADGALVSTLLKKKLTEFLATSDQVR”, “HMETGNEDYRVGKELAYDGNYKAATIYLMKSIKDDPNNPDAFNMLGFSHRKLGNNDEAYIYYNKALEL” is lower in “soluble fraction (log2)” value: -0.0719 for the first, -0.275 for the second.

First: HMETKKEIIEAINELEEKYRNAIYLTSIEKLSYEETSKILGQSLSNTKNLIHRGKQQLRKILIKK
Second: HMETLEDHRKKTRQQLFDALSHLLQTSTFESLTMAKIAEEAGVGRTAVYNHFQDKEALLLAFITYETGQ
The “soluble fraction (log2)” value of the first is higher: -0.772 for the first, -1.74 for the second.

Going from “HMETLETYTSRLRQLEDITNNFKGVDKSFAIQAGREIRVMVVPEQVSDADMILMARDISKAIEAELEYPGQ” to “HMETLGADLRALRKSRGLTLLDMAESLGRSVGWLSQVERDLSDPSISDLREIAELLGVPISMLFRH”, the “soluble fraction (log2)” value falls from 0.0937 to -2.83.

Going from “HMETLKEMDSKGAINASEVNVREGAGTSSSKMYSLSKGASVDVTGIKGDWYRVHTSKGTGYVLAKYVTLVS” to “HMETLYGQIVNDIMEKIESNAWPVGYVIPTESDFQKQYGVSRATVRNAILKLAHLGYLVRKKGSGTYVTRP”, the “soluble fraction (log2)” value falls from -0.29 to -1.25.

First: HMETPEIPGLTPRQVEIMLLVGKGYSNKEIARFLTISPETVKTHLKEVFLRFGLRNRVEAIDFTRQNGL
Second: HMETPLSAADFKIVFGEEYEIGTDANGLPKMGSRINRQLQNRFLTWASVNKRKATMSAYQDWVASDPAAQ
The “soluble fraction (log2)” value of the first is lower: -0.656 for the first, -0.323 for the second.

First: HMETQVKVPNVVGMTQSKAIAKLKESKLDYEVQEQKHDGDKGKVVDQSEAEGTYVDRGTKVIIYVSTGE
Second: HMETSIQFIRLEIGHNHPWVNQTLKEIPTIPGTLIAAVLRGDEDQAIIPKGDTLLKEGDSVIIGAKEYQD
The “soluble fraction (log2)” value of the first is higher: -0.437 for the first, -1.42 for the second.

First: HMETSLVIQIDGAVNSPGIYQVTPGTRIFEALELAGGVREDAQTEALNLALPVYDGQRISIPSSFA
Second: HMETTVSYSGVVTASVLRIRKGPSVSSSVAGTLKKGTGVSIIFEDNGWGKLADGSGWVSLTYIKKNSTP
The “soluble fraction (log2)” value of the first is higher: -0.153 for the first, -2.33 for the second.

Going from “HMETWDQAYETIKQNILNLTYPPGMPLTEAKLAEELGMSRSPVRTALRMLQTDGLIVTDYYKSMTVKEI” to “HMETWKLYKRAYKKYYARYMKGNMSEADFKAWATQAAADRDAAIEQITPEIDAALKAQIIEQLREKLNR”, the “soluble fraction (log2)” value rises from -1.95 to -1.11.

First: HMEVAAAENYRSKLSSFAKDTISVWQTELLLGTISDDDKASLTEWMAYIKALQVVDTSDPESITWPTEPT
Second: HMEVAASEQRDNLWALARRVLSGEQYDVLYLRYVEDFSVAQIADVVGKTQTHVKVLLFRGRNNLGSRLRS
The “soluble fraction (log2)” value of the first is lower: -1.14 for the first, 0.0441 for the second.

Compared with “HMEVENAQLLARLTPQEHRVFERVVAGLSNREIGSEMDISIKTVEVHRARVMRKLEANSVAELVRFHIHN”, “HMEVGDTYLGKVTRVSSFGAFIEVLPGKEGLMRQNDAGEGGMPEVGDEVMVRVMEVDHLGRINLSGKLDD” is higher in “soluble fraction (log2)” value: -2.37 for the first, -0.102 for the second.
